In PMC4068353, “Characterization of 14-3-3-ζ Interactions with Integrin Tails” (Journal of Molecular Biology, 2013):
Substitutions are numbered along the chain they refer to. Numbers in names are those of the source. Where “and” joins values, the source holds several entries; their conditions need not be identical. Identical values can stand only once. Entries after “also recorded” stand apart in the source; their conditions may differ. Values belong to the molecule of their own block, whether it stands above or below them. Non-standard residues stand in square brackets, D forms with d. Residues, ends and D or L forms follow the SMILES beside them. No end group written: not given here. fluorescein‑5‑maleimide = fluorescein-5-maleimide linked to an engineered C-terminal Cys; pT = C[C@@H](OP(=O)(O)O)[C@H](N)C(=O)O; pS = N[C@@H](COP(=O)(O)O)C(=O)O

Legend:
14-3-3-ζ [1] = molecular target: T1, 14-3-3-ζ (Homo sapiens, UniProt P63104); experiment: ITC of integrin tail fragments with 14-3-3-ζ; format: binding; conditions: 298 K; for binding to 14-3-3-ζ by ITC, in words: pH 6.5, fragment in cell, 14-3-3-ζ in syringe; for Kd: 20 mM sodium phosphate, 50 mM NaCl pH 6.5, integrin fragment in cell (80–200 μM), 14-3-3-ζ in syringe (0.75–2 mM), one-site model, repeated twice
T1 construct: His10 (cleaved yes); made in house
T1 sequence (P63104 1-245): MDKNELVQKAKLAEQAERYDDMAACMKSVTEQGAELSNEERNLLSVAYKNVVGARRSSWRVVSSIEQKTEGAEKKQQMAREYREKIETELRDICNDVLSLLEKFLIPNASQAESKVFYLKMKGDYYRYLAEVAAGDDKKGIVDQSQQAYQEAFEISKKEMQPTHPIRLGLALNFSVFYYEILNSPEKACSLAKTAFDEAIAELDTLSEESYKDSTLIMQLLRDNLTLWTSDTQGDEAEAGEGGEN
Method: Phosphorylated α4 synthetic peptides were purchased from GL Biochem Ltd. (Shanghai). All recombinant proteins and synthetic peptides were prepared in 20 mM sodium phosphate and 50 mM NaCl (pH 6.5), and concentrations were determined by UV absorbance at 280 nm. ITC experiments using a VP-ITC200 instrument (MicroCal) were performed at 298 K as follows: the cell (volume, ~ 200 μl) contained the different integrin tail fragments, and the syringe (volume, ~ 40 μl) contained 14-3-3-ζ. A first injection of 2 μl was followed by 15 injections of 2.5 μl, with a stirring speed of 1500 rpm and a delay between injections of 180 s. A blank titration was performed by injecting 14-3-3-ζ into buffer to take the heat of dilution into account. Experiments were repeated twice for each sample. Raw data were processed and fitted with MicroCal Origin software using a one-site model where the error function is calculated as the sum of the squared deviations between the data and the model curve.

14-3-3-ζ [2] = molecular target: T1, 14-3-3-ζ; experiment: 15N-1H HSQC NMR titration of 15N-labeled integrin tails with unlabeled 14-3-3-ζ; format: binding; conditions: 15N-labeled tail 0.1 mM, equimolar unlabeled 14-3-3-ζ; NMR buffer pH 6.5, 25 °C
Method: Samples were prepared in NMR buffer (pH 6.5) with 5% D2O, and experiments were performed at 25 °C. Titration experiments were collected on a 500-MHz spectrometer using a water flip-back-embedded gradient enhanced ^15N–^1H HSQC pulse sequence.[46] For the assignment of the α4 and β2 backbone resonances, ^15N–^13C integrin tails of 0.6 mM concentration were used to measure CBCA(CO)NH and CBCANH experiments on a Bruker 500-MHz instrument equipped with a cryogenic probe head. Data were processed using NMRPipe[47] and analyzed with the programs CARA/XEASY[48] or CCPN Analysis.[49]

14-3-3-ζ [3] = molecular target: T1, 14-3-3-ζ; experiment: Fluorescence polarization titration of fluorescein-labeled integrin tails with 14-3-3-ζ; format: binding; conditions: fluorescein-labeled tail, 1 μM; ex 485 nm, em 520 nm
Method: Fig. 6 Fluorescence polarization and ITC of interactions between integrin tails and 14-3-3-ζ. (a) Fluorescence polarization titrations of fluorescein-labeled β1A, β3 and α4 with 14-3-3-ζ. […] (b–d) ITC sensorgram of an in-cell 200 μM β1A, β2 (same as in Fig. 5a) or β3 samples injected with 2 mM 14-3-3-ζ.
For fluorescence polarization experiments, integrin tails were labeled with fluorescein-5-maleimide (Invitrogen) linked to an engineered C-terminal Cys residue. Measurements were performed using 96-well microplates (Corning) in a PHERAstar FS microplate reader (BMG Labtech). Fluorescein-labeled integrin tails at 1 μM concentration were excited at 485 nm, and polarization was recorded at 520 nm.

14-3-3-ζ [4] = molecular target: T2, 14-3-3-ζ (UniProt P63104 1-245); experiment: fluorescence polarisation; fluorescein-labeled integrin tails at 1 μM titrated with increasing amounts of 14-3-3-ζ; 96-well plates; excitation 485 nm, emission 520 nm; single-site model; conditions: both partners purified
T2 construct: 14-3-3 protein zeta; Expressed from the same modified pET16b vector as the integrin tails (His10, 3C site); also called 14-3-3-ζ wt; unlabeled 14-3-3-ζ; not shown: His10, N-terminal, cleaved
T2 sequence: T1 sequence (P63104 1-245)

14-3-3-ζ [5] = molecular target: T2, 14-3-3-ζ; experiment: ITC; integrin tail fragment in the cell (80-200 μM), 14-3-3-ζ in the syringe (0.75-2 mM); 298 K; 20 mM sodium phosphate, 50 mM NaCl, pH 6.5; one-site model; conditions: both partners purified
14-3-3-ζ [6] = molecular target: T2, 14-3-3-ζ; experiment: NMR titration; 15N-1H HSQC of 15N-labeled integrin tail (0.1 mM) before and after addition of unlabeled 14-3-3-ζ (wt or variant; equimolar, 0.1 mM); 20 mM sodium phosphate, 50 mM NaCl, pH 6.5, 5% D2O, 25 °C; read-out: loss of resonance intensity (I/Io); conditions: both partners purified

binding to 14-3-3-ζ by ITC, in words (14-3-3-ζ [1]): no interaction was detected by ITC
Molecule: paxillin residues 111–128: phosphorylated peptide containing a putative 14-3-3 binding motif, corresponding to paxillin residues 111–128 (VGEEEHVYSFPNKQKSAE; also: phosphorylated; UniProt P49023 111-128, looked up, fragment)

change of integrin tail resonances on addition of 14-3-3-ζ, in words (14-3-3-ζ [2]): selective broadening of β2 resonances
Molecule: GSKALIHLSDLREYRRFEKEKLKSQWNNDNPLFKSATTTVMNPKFAES [β2 wt, recombinant unphosphorylated β2 integrin tail, residues 724–769]
binding to 14-3-3-ζ by ITC, in words (14-3-3-ζ [1]): only a weak interaction; also recorded: the interaction is weak, in the millimolar range
binding to 14-3-3-ζ by ITC, in words (14-3-3-ζ [1]; listed as β2): Only β1A gave a binding curve that could be fitted

binding to 14-3-3-ζ by fluorescence polarization, in words (14-3-3-ζ [3]): No binding was detected
Molecule: GS KLLITIHDRKEFAKFEEERARAKWDTANNPLYKEATSTFTNITYRGT [β3 wt, recombinant β3 integrin tail, residues 742–788]
binding to 14-3-3-ζ by ITC, in words (14-3-3-ζ [1]): Only β1A gave a binding curve that could be fitted
change of integrin tail resonances on addition of 14-3-3-ζ, in words (14-3-3-ζ [2]): intensity reduction for several resonances

Kd (14-3-3-ζ [1]): > 300 µM and 315 µM
Molecule: CC[C@H](C)[C@H](NC(=O)[C@H](COP(=O)(O)O)NC(=O)[C@H](CCCCN)NC(=O)[C@H](Cc1ccc(O)cc1)NC(=O)[C@H](CCC(N)=O)NC(=O)[C@H](CCCNC(=N)N)NC(=O)[C@H](CCCCN)NC(=O)[C@@H](N)Cc1ccccc1)C(=O)N[C@@H](CC(C)C)C(=O)N[C@@H](CCC(N)=O)C(=O)N[C@@H](CCC(=O)O)C(=O)O [α4-11pS] (H-FKRQYK[pS]ILQE-OH)

Molecule: GS KLLMIIHDRREFAKFEKEKMNAKWDTQENPIYKSPINNFKNPNYGRKAGL (GSKLLMIIHDRREFAKFEKEKMNAKWDTQENPIYKSPINNFKNPNYGRKAGL; left off: His10, N-terminal, cleaved) [β1D wt, recombinant β1D integrin tail, residues 752–801]
change of integrin tail resonances on addition of 14-3-3-ζ, in words (14-3-3-ζ [2]): interacts with 14-3-3-ζ in a very similar way to β1A

Kd (14-3-3-ζ [1]): 7.9 ± 3.1 µM
Molecule: KALIHLSDLREYRRFEKEKLKSQWNNDNPLFKSA[pT]TTVMNPKFAES [β2-45pT]

Molecule: GPLGSKAGFFKRQYKDILQEENRRDSWSYINSKSNDD [α4 S1011D, recombinant α4 integrin tail phospho-mimetic, S1011D]
change of integrin tail resonances on addition of 14-3-3-ζ, in words (14-3-3-ζ [2]): significant decrease in α4 amide resonance intensities

Kd (14-3-3-ζ [1]): 23.6 ± 2.1 µM
Molecule: CC[C@H](C)[C@H](NC(=O)[C@H](Cc1ccc(O)cc1)NC(=O)[C@H](CO)NC(=O)[C@H](Cc1c[nH]c2ccccc12)NC(=O)[C@H](CO)NC(=O)[C@H](CC(=O)O)NC(=O)[C@H](CCCNC(=N)N)NC(=O)[C@H](CCCNC(=N)N)NC(=O)[C@H](CC(N)=O)NC(=O)[C@H](CCC(=O)O)NC(=O)[C@H](CCC(=O)O)NC(=O)[C@H](CCC(N)=O)NC(=O)[C@H](CC(C)C)NC(=O)[C@@H](NC(=O)[C@H](COP(=O)(O)O)NC(=O)[C@H](CCCCN)NC(=O)[C@H](Cc1ccc(O)cc1)NC(=O)[C@H](CCC(N)=O)NC(=O)[C@H](CCCNC(=N)N)NC(=O)[C@H](CCCCN)NC(=O)[C@H](Cc1ccccc1)NC(=O)[C@H](Cc1ccccc1)NC(=O)CN)[C@@H](C)CC)C(=O)N[C@@H](CC(N)=O)C(=O)N[C@@H](CO)C(=O)N[C@@H](CCCCN)C(=O)N[C@@H](CO)C(=O)N[C@@H](CC(N)=O)C(=O)N[C@@H](CC(=O)O)C(=O)N[C@@H](CC(=O)O)C(=O)O [α4-30pS] (H-GFFKRQYK[pS]ILQEENRRDSWSYINSKSNDD-OH)

binding to 14-3-3-ζ by ITC, in words (14-3-3-ζ [1]): no binding
Molecule: YKSAVpTTVVNP [β1-11pT, synthetic β1 phospho-threonine peptide, residues 783–793]

Molecule: paxillin: construct of the N-terminal region of paxillin (residues 1–323) that included all LD motifs
binding to 14-3-3-ζ by ITC, in words (14-3-3-ζ [1]): no pairwise interaction was detected by ITC

Molecule: GS RLSVEIYDRREYSRFEKEQQQLNWKQDSNPLYKSAITTTINPRFQEADSPTL (GSRLSVEIYDRREYSRFEKEQQQLNWKQDSNPLYKSAITTTINPRFQEADSPTL; left off: His10, N-terminal, cleaved) [β7 wt, recombinant β7 integrin tail, residues 747–798]
change of integrin tail resonances on addition of 14-3-3-ζ, in words (14-3-3-ζ [2]): intensity reduction for several resonances

Kd (14-3-3-ζ [4]): 95 ± 16 µM
Molecule: GSKLLMIIHDRREFAKFEKEKMNAKWDTGENPIYKSAVTTVVNPKYEGKC(fluorescein‑5‑maleimide) (domain or fragment) [fluorescein-labeled β1A integrin tail]

Kd (14-3-3-ζ [5]): > 300 µM
B1: α4-11pS phospho-peptide (peptide)
peptide: FKRQYK[pS]ILQE
notes: integrin α4 cytoplasmic tail, residues 1005-1015 of UniProt P13612; S1011 is phospho-serine; also called short phosphorylated α4 integrin peptide; source: synthetic peptide, bought: GL Biochem Ltd. (Shanghai)

Kd (14-3-3-ζ [5]): 4 µM
B2: β2-11pT phospho-peptide (peptide)
peptide: PLFKSATTTVM
modifications: also: phospho-threonine at 758
notes: integrin β2 cytoplasmic tail, residues 752-762 of UniProt P05107; T758 is phospho-threonine; also called short β2 phospho-peptide; source: synthetic peptide

Kd (14-3-3-ζ [5]): ~24 µM
B3: α4-30pS phospho-peptide (peptide)
peptide: GFFKRQYK[pS]ILQEENRRDSWSYINSKSNDD
notes: integrin α4 cytoplasmic tail, residues 1003-1032 of UniProt P13612; S1011 is phospho-serine; also called phosphorylated α4-derived peptide; source: synthetic peptide, bought: GL Biochem Ltd. (Shanghai)

binding result (14-3-3-ζ [6]): binds
B4: α4 integrin cytoplasmic tail, wild type (domain or fragment, human (from the printed UniProt entry))
chain: GPLGSKAGFFKRQYKSILQEENRRDSWSYINSKSNDD
notes: residues from the cloning tag at the N-terminus; integrin α4 cytoplasmic tail, residues 1001-1032 of UniProt P13612; 15N-labelled for NMR, unlabelled for ITC; also called α4 wt; full-length α4 integrin tail; not shown: His10, N-terminal, cleaved

Kd (14-3-3-ζ [5]): 280 ± 40 µM
B5: β1A integrin cytoplasmic tail, wild type (domain or fragment, human (from the printed UniProt entry))
chain: GSKLLMIIHDRREFAKFEKEKMNAKWDTGENPIYKSAVTTVVNPKYEGK
notes: residues from the cloning tag at the N-terminus; integrin β1A cytoplasmic tail, residues 752-798 of UniProt P05556; 15N-labelled for NMR, unlabelled for ITC; also called β1A wt; not shown: His10, N-terminal, cleaved

Kd (14-3-3-ζ [5]): ~60 µM
B6: α4 integrin cytoplasmic tail S1011D (domain or fragment, human (from the printed UniProt entry))
chain: B4 chain with S16D
notes: residues from the cloning tag at the N-terminus; integrin α4 cytoplasmic tail, residues 1001-1032 of UniProt P13612, with S1011D; 15N-labelled for NMR, unlabelled for ITC; also called α4 S1011D; α4 phospho-mimetic; not shown: His10, N-terminal, cleaved

Kd (14-3-3-ζ [5]): 8 µM
B7: β2-45pT phospho-peptide (peptide)
peptide: KALIHLSDLREYRRFEKEKLKSQWNNDNPLFKSATTTVMNPKFAES
modifications: also: phospho-threonine at 758
notes: integrin β2 cytoplasmic tail, residues 724-769 of UniProt P05107; T758 is phospho-threonine; also called long β2 phospho-peptide; source: synthetic peptide
